Laboratory results reported in PMC2265480, “Identification of Synaptic Targets of Drosophila Pumilio”.

Experiments:
[1] = molecular target: T1, GST-Pum (Pumilio RNA-binding domain) (Drosophila, UniProt P25822 1091-1533); assay: EMSA; details: 5:1 protein:RNA, 10 mM Hepes/KOH pH 7.4, 50 mM KCl, 3 mM MgCl2, 1 mM EDTA, 2 mM DTT, 0.1 mg/ml BSA, 0.1 mg/ml yeast tRNA, 0.01% Tween-20, 0.2 U RNasin, 10% glycerol, 10 ul …
T1 sequence: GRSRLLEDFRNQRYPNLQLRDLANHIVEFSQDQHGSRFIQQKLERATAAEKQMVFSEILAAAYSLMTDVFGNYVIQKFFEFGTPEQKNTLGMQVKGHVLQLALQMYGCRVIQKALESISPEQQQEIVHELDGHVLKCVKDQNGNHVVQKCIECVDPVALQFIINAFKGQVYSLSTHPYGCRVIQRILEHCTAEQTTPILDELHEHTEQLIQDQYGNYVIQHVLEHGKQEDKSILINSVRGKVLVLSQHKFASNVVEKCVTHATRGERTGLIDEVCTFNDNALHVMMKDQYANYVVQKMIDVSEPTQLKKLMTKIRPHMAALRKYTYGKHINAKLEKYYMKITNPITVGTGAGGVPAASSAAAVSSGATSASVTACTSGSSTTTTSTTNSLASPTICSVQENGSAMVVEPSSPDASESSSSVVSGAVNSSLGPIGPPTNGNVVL

[2] = molecular target: T2, GST-Pum (Pumilio RNA-binding domain) (Drosophila) (UniProt P25822); assay: EMSA; details: 5:1 protein:RNA (50 fmol:10 fmol); one complex; 10 mM Hepes/KOH pH 7.4, 50 mM KCl, 3 mM MgCl2, 1 mM EDTA, 2 mM DTT, 0.1 mg/ml BSA, 0.1 mg/ml yeast tRNA, 0.01% Tween-20, 0.2 U RNasin, 10% glycerol, 10 ul …
T2 sequence: T1 sequence

[3] = molecular target: T1, GST-Pum (Pumilio RNA-binding domain); assay: EMSA; up to 50 fmol protein:10 fmol RNA; 10 mM Hepes/KOH pH 7.4, 50 mM KCl, 3 mM MgCl2, 1 mM EDTA, 2 mM DTT, 0.1 mg/ml BSA, 0.1 mg/ml yeast tRNA, 0.01% Tween-20, 0.2 U RNasin, 10% glycerol, 10 ul, 20 min room temperature; 5% native gel in 1x TBE; details: protein: recombinant; tags: N-terminal GST; label: radiolabel

## dlg1 isoform C 3'UTR 744-829
[1]; not bound even at high molar ratio
  binding signal: 0 % bound

## Csp 3'UTR 1218-1545
[1]; 2 sites
  binding signal: 57.2 % bound

## AP-1gamma 3'UTR 85-191
[1]; one complex
  binding signal: 21.8 % bound

## Ace 3'UTR 722-1095
[1]
  binding signal: 33 % bound

## Gad1 3'UTR 704-973
[1]; 2 sites
  binding signal: 35.9 % bound

## AUUAUUUUGUUGUCGAAAAUUGUACAUAAGCC [hb NRE2]
[2]
  binding signal: 67.9 % bound

## shn 3'UTR 809-1013
[1]; 2 sites
  binding signal: 59 % bound

## dlg1 (isoforms A and D) 3'UTR 1485-1539
[1]; one complex
  binding signal: 56.9 % bound

## mam 3'UTR 642-1110
[1]; 2 sites
  binding signal: 73.8 % bound

## EP2237 3'UTR 340-514
[1]
  binding signal: 20.5 % bound

## GGUAGUGCAUACAACUUCCUU (ssRNA) [CRS random control RNA]
[3]
  binding result: no binding
